Biological target: insulin-like growth factor I (IGF-I) (UniProt P05019)
Assay: cell-based or functional assay

Sequence of insulin-like growth factor I (IGF-I) (P05019 49-118 limits assumed): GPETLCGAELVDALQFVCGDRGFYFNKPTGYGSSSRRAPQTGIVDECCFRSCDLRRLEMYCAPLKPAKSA

Neu-IGF-II antibody (anti-IGF-II antibody, R&D system Cat# MAB292)
IGF-I stimulated Ba/F3 cell proliferation: 30 % inhibition
